For one assay, the system named is NCI-H292 tumour model. Description: Anti-EGFR ADCs in the NCI-H292 tumour model on single treatment. The format is in vivo, female NMRI-nude mice. The note with it: 2.5 mg/kg once on day 9; day 25. Here is the method:
Growth Inhibition/Regression of Experimental Tumours in the Mouse
The tumour area is determined as length×width.
When after the end of the treatment all groups of the experiment are terminated at the same time, the tumours can be removed and weighed.
C-6c. Efficacy of the Anti-EGFR Antibody Drug Conjugates in the NCI-H292 Tumour Model on Single Treatment
After the treatment, the tumour growth is monitored up to day 25.

Assay [1] has as its target T1, recombinant human TWEAKR protein (TPP-2305) (Homo sapiens, UniProt Q9NP84).
T1 construct: purchased Fitzgerald Inc 30R-AT080
The settings on record: published data (WO2009/020933, WO2009/140177, literature); cited from earlier work.

For assay [2], the target named is T1, recombinant human TWEAKR protein (TPP-2305). In words: Binding affinities by Biacore analysis. The note with it: monovalent. Here is the method: Determination of Binding Affinities by Biacore Analysis:
Binding affinities of anti-TWEAKR antibodies were examined using surface plasmon resonance analysis on a Biacore T100 instrument (GE Healthcare Biacore, Inc.). The antibodies were immobilized on a CM5 sensor chip using an indirect capture reagent, anti-human IgG(Fc). […] Anti-TWEAKR antibodies were injected at a concentration of 10 μg/ml at […] for 10 sec.
Sensorgrams were generated after in-line reference cell correction, followed by subtraction of the buffer sample. The dissociation constant (KD) was calculated based on the ratio of association (kon) and dissociation (koff) constants, obtained by fitting sensorgrams using a 1:1 first order binding model.
In general terms: SPR reads the build-up and loss of mass on a sensor chip optically.

In a further assay the target is T2, TWEAKR-Fc mutein T33Q (Homo sapiens, UniProt Q9NP84, T33Q).
T2 construct: the full-length ectodomain (amino acids 28-80); made in house
Description: ELISA, effect of TWEAKR-Fc muteins on antibody binding. The settings on record: 62 ng/ml mutein coated, biotinylated IgG from 100 nM. The procedure: (§1) Effect of TWEAKR-Fc Muteins on the Antibody Affinity
(§2) To this end, the full-length ectodomain (amino acids 28-80) having the individual amino acid substitutions below were expressed and purified as Fc fusion proteins: T33Q; S40R; W42A; M50A; R56P; H60K; L65Q.
(§3) Detection was carried out using streptavidin-HRP and Amplex Red.
(§4) The dose-reaction data were fitted and the IC50s were determined.
A general note: In an ELISA, binding on a coated surface is turned into a signal by an enzyme label.

Another assay addresses T3, TWEAKR-Fc WT (TPP-599) (Homo sapiens, UniProt Q9NP84).
T3 construct: hTNFRSF12 amino acids a28-80-hIgG1-Fc
The description is as above. The settings on record: 62 ng/ml TWEAKR-Fc coated, biotinylated IgG from 100 nM. Here is the method: as §1, §2, §3, §4

For another assay, the target named is T4, TWEAKR-Fc mutein S40R (Homo sapiens, UniProt Q9NP84, S40R).
T4 construct: the full-length ectodomain (amino acids 28-80); made in house
The assay is described as above. The settings on record: 62 ng/ml mutein coated, biotinylated IgG from 100 nM. Here is the method: as §1, §2, §3, §4

For the next assay, the target named is T5, TWEAKR-Fc mutein H60K (Homo sapiens, UniProt Q9NP84, H60K).
T5 construct: the full-length ectodomain (amino acids 28-80); made in house
The assay is described as above. The settings on record: 62 ng/ml mutein coated, biotinylated IgG from 100 nM. The procedure: as §1, §2, §3, §4

In another assay the target is T6, TWEAKR-Fc mutein M50A (Homo sapiens, UniProt Q9NP84, M50A).
T6 construct: the full-length ectodomain (amino acids 28-80); made in house
Described as above. The note with it: 62 ng/ml mutein coated, biotinylated IgG from 100 nM. Here is the method:
as §1, §2, §3, §4

Another assay has as its target T7, TWEAKR-Fc mutein L65Q (Homo sapiens, UniProt Q9NP84, L65Q).
T7 construct: the full-length ectodomain (amino acids 28-80); made in house
The assay is described as above. The settings on record: 62 ng/ml mutein coated, biotinylated IgG from 100 nM. The procedure:
as §1, §2, §3, §4

For another assay, the target named is T8, TWEAKR-Fc mutein W42A (Homo sapiens, UniProt Q9NP84, W42A).
T8 construct: the full-length ectodomain (amino acids 28-80); made in house
The assay is described as above. The settings on record: 62 ng/ml mutein coated, biotinylated IgG from 100 nM. The procedure: as §1, §2, §3, §4

A further assay has as its target T9, TWEAKR-Fc mutein R56P (Homo sapiens, UniProt Q9NP84, R56P).
T9 construct: the full-length ectodomain (amino acids 28-80); made in house
The description is as above. The note with it: 62 ng/ml mutein coated, biotinylated IgG from 100 nM. Here is the method: as §1, §2, §3, §4

Residue numbers refer to the chain shown, from its start. Like-named read-outs stand apart in the source and are kept apart here.

As usually defined, the Kd is a measure of binding affinity in units of concentration. As a reminder, the IC50 is the concentration that gives 50% inhibition.

Turning to `CC(C)(C)[C@H](c1nc(-c2cc(F)ccc2F)cn1Cc1ccccc1)N(CCCN)C(=O)CO` [toxophor A, N-(3-aminopropyl)-N-{(1R)-1-[1-benzyl-4-(2,5-difluorophenyl)-1H-imidazol-2-yl]-2,2-dimethylpropyl}-2-hydroxyacetamide], in the assay with NCI-H292 tumour model, the T/C area came out at 0.87 and the T/C weight came to 0.82.
For `CC(C)(C)[C@H](c1nc(-c2cc(F)ccc2F)cn1Cc1ccccc1)N(CC[C@@H](N)CF)C(=O)CO` [toxophor B, N-[(3R)-3-amino-4-fluorobutyl]-N-{(1R)-1-[1-benzyl-4-(2,5-difluorophenyl)-1H-imidazol-2-yl]-2,2-dimethylpropyl}-2-hydroxyacetamide] the same measures were 0.57 and 0.40.

B1: 136.1: "agonistic antibodies already described [e.g. PDL-192(TPP-1104), P4A8(TPP-1324), 136.1(TPP-2194)]" (protein)
light: DIVLTQSPASLTVSLGQRATISCRASQSVSTSSYSYMQWYQQRPGQPPKLLIKYATNLDSGVPARFSGSGSGTDFTLNIHPVEEEDAATYYCQHSWEIPYTFGGGTKLEIKRADAAPTVSIFPPSSEQLTSGGASVVCFLNNFYPKDINVKWKIDGSERQNGVLNSWTDQDSKDSTYSMSSTLTLTKDEYERHNSYTCEATHKTSTSPIVKSFNRNEC
heavy: EVKLEESGGGLVQPGGSMKLSCVASGFTFNNYWMSWVRQSPEKGLEWLAEIRLKSDNYATHYAESVKGKFTISRDDSKSRLYLQMNNLRAENTGIYYCTGGFADYFDYWGQGTTLTVSSAKTTAPSVYPLAPVCGDTTGSSVTLGCLVKGYFPEPVTLTWNSGSLSSGVHTFPAVLQSDLYTLSSSVTVTSSTWPSQSITCNVAHPASSTKVDKKIEPRGPTIKPCPPCKCPAPNLLGGPSVFIFPPKIKDVLMISLSPIVTCVVVDVSEDDPDVQISWFVNNVEVHTAQTQTHREDYNSTLRVVSALPIQHQDWMSGKEFKCKVNNKDLPAPIERTISKPKGSVRAPQVYVLPPPEEEMTKKQVTLTCMVTDFMPEDIYVEWTNNGKTELNYKNTEPVLDSDGSYFMYSKLRVEKKNWVERNSYSCSVVHEGLHNHHTTKSFSRTPG
modifications: Mus Musculus
On to B1, for which, in assay [1], the Kd is 0.7 nM.

B2: 136.1(TPP-2194): comparative anti-TWEAKR antibody; variable domains from WO2009/020933, constant region added, "resulting in full-length IgGs" (protein)
light: B1 light
heavy: B1 heavy
modifications: Mus Musculus
Consider B2, for which the “ka” value in assay [2] worked out at 3.84e+07 M⁻¹ s⁻¹. In addition, in [2], the “kd” value came out at 0.0324 s⁻¹. The IC50 with TWEAKR-Fc mutein T33Q, with TWEAKR-Fc WT (TPP-599), with TWEAKR-Fc mutein S40R, with TWEAKR-Fc mutein H60K, in the assay with TWEAKR-Fc mutein M50A and in the assay with TWEAKR-Fc mutein L65Q was 0.001 to 0.15 nM throughout. In addition, the IC50 with TWEAKR-Fc mutein W42A and in the assay with TWEAKR-Fc mutein R56P was > 50 nM throughout.

B3: P3G5(TPP-2195): comparative anti-TWEAKR antibody; variable domains from WO2009/140177, constant region added, "resulting in full-length IgGs" (protein)
light: DIVLTQSPASLAVSLGQRATISCRANKSVSTSSYSYMHWYQQKPGQPPKLLIKYASNLESGVPARFSGSGSGTDFILNIHPVEEEDAATYYCQHSRELPFTFGSGTKLEIKRADAAPTVSIFPPSSEQLTSGGASVVCFLNNFYPKDINVKWKIDGSERQNGVLNSWTDQDSKDSTYSMSSTLTLTKDEYERHNSYTCEATHKTSTSPIVKSFNRNEC
heavy: QVQLQQSGPEVVRPGVSVKISCKGSGYTFTDYGIHWVKQSHAKSLEWIGVISTYNGYTNYNQKFKGKATMTVDKSSSTAYMELARLTSEDSAIYYCARAYYGNLYYAMDYWGQGTSVTVSSAKTTAPSVYPLAPVCGDTTGSSVTLGCLVKGYFPEPVTLTWNSGSLSSGVHTFPAVLQSDLYTLSSSVTVTSSTWPSQSITCNVAHPASSTKVDKKIEPRGPTIKPCPPCKCPAPNLLGGPSVFIFPPKIKDVLMISLSPIVTCVVVDVSEDDPDVQISWFVNNVEVHTAQTQTHREDYNSTLRVVSALPIQHQDWMSGKEFKCKVNNKDLPAPIERTISKPKGSVRAPQVYVLPPPEEEMTKKQVTLTCMVTDFMPEDIYVEWTNNGKTELNYKNTEPVLDSDGSYFMYSKLRVEKKNWVERNSYSCSVVHEGLHNHHTTKSFSRTPG
modifications: Mus Musculus
For the molecule B3, in assay [2], the “ka” value was 2.31e+06 M⁻¹ s⁻¹. For the same molecule, the “kd” value in assay [2] was determined as 0.00122 s⁻¹. Also, the concentration for half-maximal inhibition (IC50) with TWEAKR-Fc mutein T33Q, in the assay with TWEAKR-Fc WT (TPP-599), with TWEAKR-Fc mutein S40R, with TWEAKR-Fc mutein H60K, in the assay with TWEAKR-Fc mutein M50A and with TWEAKR-Fc mutein L65Q was 0.001 to 0.15 nM in each case. The concentration for half-maximal inhibition (IC50) with TWEAKR-Fc mutein W42A was > 50 nM; with TWEAKR-Fc mutein R56P, 0.001 to 0.15 nM.

B4: P2D3(TPP-2196): comparative anti-TWEAKR antibody; variable domains from the patent literature, constant region added, "resulting in full-length IgGs" (protein)
light: B3 light with N26S, A55T, F100W, S104G
heavy: QVSLKESGPGILQPSQTLSLTCSFSGFSLSTSGMGVSWIRQPSGKGLEWLAHIYWDDDKRYNPSLKSRLTISKDTSRNQVFLKITSVDTADTATYYCARRGPDYYGYYPMDYWGQGTSVTVSAKTTAPSVYPLAPVCGDTTGSSVTLGCLVKGYFPEPVTLTWNSGSLSSGVHTFPAVLQSDLYTLSSSVTVTSSTWPSQSITCNVAHPASSTKVDKKIEPRGPTIKPCPPCKCPAPNLLGGPSVFIFPPKIKDVLMISLSPIVTCVVVDVSEDDPDVQISWFVNNVEVHTAQTQTHREDYNSTLRVVSALPIQHQDWMSGKEFKCKVNNKDLPAPIERTISKPKGSVRAPQVYVLPPPEEEMTKKQVTLTCMVTDFMPEDIYVEWTNNGKTELNYKNTEPVLDSDGSYFMYSKLRVEKKNWVERNSYSCSVVHEGLHNHHTTKSFSRTPG
modifications: Mus Musculus
Turning to B4, in [2], the “ka” value was found to be 1.32e+06 M⁻¹ s⁻¹ and the “kd” value was 0.000564 s⁻¹. The Kd in [2] (read-out: KD (n M )) is 0.4 nM.

The values above are taken from patent US10022453B2 (BAYER PHARMA AKTIENGESELLSCHAFT, priority 2013, dated 2018).
